Data on two molecules can be found in US20190033318A1.

Test in all cases: thermal shift assay, 1 mM peptide
Experiment [1] has as its target Trx-2α (thioredoxin-tagged HIF-2α 1-360, bHLH-PASA-PASB) (UniProt Q99814).
Experiment [2] concerns the target 2α PASB (HIF-2α PASB domain, 240-350) (UniProt Q99814).
The target of experiment [3] is 1α PASB (HIF-1α PASB domain, 238-349) (UniProt Q16665).
In experiment [4] the target is GST-1β (GST-tagged HIF-1β 1-474, isoform 2, Δ77-91) (UniProt P27540).

Sequence of Trx-2α (thioredoxin-tagged HIF-2α 1-360, bHLH-PASA-PASB) (Q99814 1-360): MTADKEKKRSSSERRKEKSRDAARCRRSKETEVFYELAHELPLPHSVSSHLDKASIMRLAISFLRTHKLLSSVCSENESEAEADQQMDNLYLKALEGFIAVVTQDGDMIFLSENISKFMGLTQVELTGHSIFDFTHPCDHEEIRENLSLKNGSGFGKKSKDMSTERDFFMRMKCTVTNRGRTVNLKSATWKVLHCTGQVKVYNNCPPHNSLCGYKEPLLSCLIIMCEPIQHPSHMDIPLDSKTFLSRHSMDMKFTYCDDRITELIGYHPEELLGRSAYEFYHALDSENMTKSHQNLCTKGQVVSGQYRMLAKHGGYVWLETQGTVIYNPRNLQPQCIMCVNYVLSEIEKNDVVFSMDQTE
Sequence of 2α PASB (HIF-2α PASB domain, 240-350) (Q99814 240-350): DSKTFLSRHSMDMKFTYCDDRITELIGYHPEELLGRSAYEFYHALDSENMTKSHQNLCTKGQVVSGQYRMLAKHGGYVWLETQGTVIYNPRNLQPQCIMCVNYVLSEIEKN
Sequence of 1α PASB (HIF-1α PASB domain, 238-349) (Q16665 238-349): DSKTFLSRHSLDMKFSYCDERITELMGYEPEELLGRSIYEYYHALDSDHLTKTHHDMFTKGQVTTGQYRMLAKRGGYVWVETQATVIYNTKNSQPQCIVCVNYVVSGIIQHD

With SGWEMIQRR (cyclic peptide (first amino acid joined to the last)) [cyclo-… (SEQ ID NO 5)], the values for the ΔTm in experiment [1], in experiment [2] and in experiment [3] were -2 ° C, -2.5 ° C and -0.5 ° C, respectively.

For the molecule CRVIIF (cyclic peptide (cyclo-, first amino acid joined to the last)) [cyclo-CRVIIF (SEQ ID NO 4)], the ΔTm in experiment [4] is -0.5 ° C.
